According to patent US20260167721A1 (ABLEXIS, published 2026):

Tests used:
[1] = molecular target: T1, recombinant human CD3 epsilon/delta heterodimer (human, UniProt P07766 23-126; P04234 22-105); test: Octet BLI, mAb on FAB2G sensor, hCD3 E/D 200-50 nM; R^2 1.00
T1 construct: Recombinant protein in solution (200-50 nM) in the Octet assay; also called hCD3 E/D; human CD3E/D

[2] = molecular target: T2, recombinant human CD3 epsilon/gamma heterodimer (human, UniProt P07766 23-126; P09693 23-116); test: Octet BLI, mAb on FAB2G sensor, hCD3 E/G 200-50 nM; R^2 0.94
T2 construct: Recombinant protein in solution (200-50 nM) in the Octet assay; also called hCD3 E/G
T2 sequence (P07766 23-126, chain 1 of 2): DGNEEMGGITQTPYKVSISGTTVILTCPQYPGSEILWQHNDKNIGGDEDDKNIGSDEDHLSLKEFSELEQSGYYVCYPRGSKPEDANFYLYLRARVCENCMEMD
T2 sequence (P09693 23-116, chain 2 of 2): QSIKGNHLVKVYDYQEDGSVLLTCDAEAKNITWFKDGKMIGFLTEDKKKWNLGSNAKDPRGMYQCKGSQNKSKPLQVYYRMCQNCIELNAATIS
Method: (§1) Samples were evaluated by flow cytometry analysis against Jurkat and human Pan-T cells (FIG. 1B) as well as by Octet against recombinant human CD3 proteins to evaluate apparent affinities and binding off-rates (Table 6, infra).

[3] = molecular target: T1, recombinant human CD3 epsilon/delta …; test: Octet BLI, mAb on FAB2G sensor, hCD3 E/D 200-50 nM; R^2 0.97
Method: as §1

[4] = molecular target: T2, recombinant human CD3 epsilon/gamma …; test: Octet BLI, mAb on FAB2G sensor, hCD3 E/G 200-50 nM; R^2 1.00
Method: as §1

[5] = molecular target: T2, recombinant human CD3 epsilon/gamma …; test: Octet BLI, mAb on FAB2G sensor, hCD3 E/G 200-50 nM; R^2 0.98
Method: as §1

CD33 on KILR-HL60 cells [6] = molecular target: T3, CD33 on KILR-HL60 cells (UniProt P20138 18-364, limits assumed); test: flow cytometry on KILR-HL60 (CD33 expressing) cells, antibody at 10 ug/ml
T3 construct: whole, on cells; Target of the gemtuzumab arm; also called CD33 expressing cells
T3 sequence (P20138 18-364 limits assumed): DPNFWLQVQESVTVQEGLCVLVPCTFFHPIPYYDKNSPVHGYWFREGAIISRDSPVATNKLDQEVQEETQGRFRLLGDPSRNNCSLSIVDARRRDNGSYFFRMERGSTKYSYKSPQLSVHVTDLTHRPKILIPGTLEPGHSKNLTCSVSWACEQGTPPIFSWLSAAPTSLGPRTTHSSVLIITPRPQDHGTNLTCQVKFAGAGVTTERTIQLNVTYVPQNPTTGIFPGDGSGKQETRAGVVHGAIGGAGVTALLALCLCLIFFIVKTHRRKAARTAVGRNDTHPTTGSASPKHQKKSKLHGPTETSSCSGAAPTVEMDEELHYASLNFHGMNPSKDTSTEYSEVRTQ

CD33 on KILR-HL60 cells [7] = molecular target: T3, CD33 on KILR-HL60 cells; test: flow cytometry on KILR-HL60 (CD33 expressing) cells, antibody at 1 ug/ml
[8] = molecular target: T4, CD3 on Jurkat wild-type cells (UniProt P07766 23-207; P04234 22-171; P09693 23-182); test: flow cytometry on Jurkat WT cells, antibody at 1 ug/ml
T4 construct: whole, on cells; also called Jurkat WT
T4 sequence (P07766 23-207, chain 1 of 3): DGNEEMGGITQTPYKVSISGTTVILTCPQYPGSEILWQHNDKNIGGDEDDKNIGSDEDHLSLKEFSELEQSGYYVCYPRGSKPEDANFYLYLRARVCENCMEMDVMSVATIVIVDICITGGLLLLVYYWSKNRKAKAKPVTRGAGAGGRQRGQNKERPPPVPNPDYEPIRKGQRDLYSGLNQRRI
T4 sequence (P04234 22-171, chain 2 of 3): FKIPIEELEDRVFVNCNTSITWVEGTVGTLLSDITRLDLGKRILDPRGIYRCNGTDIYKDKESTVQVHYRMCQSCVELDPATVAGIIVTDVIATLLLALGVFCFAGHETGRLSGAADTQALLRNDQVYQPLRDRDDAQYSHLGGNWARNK
T4 sequence (P09693 23-182, chain 3 of 3): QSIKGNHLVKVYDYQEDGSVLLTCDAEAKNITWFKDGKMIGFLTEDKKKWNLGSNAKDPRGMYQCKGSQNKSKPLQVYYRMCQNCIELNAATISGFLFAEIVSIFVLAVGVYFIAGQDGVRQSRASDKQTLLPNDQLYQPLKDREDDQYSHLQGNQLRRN

[9] = molecular target: T4, CD3 on Jurkat wild-type cells; test: flow cytometry on Jurkat WT cells, antibody at 10 ug/ml

T1 sequence (P07766 23-126, stated change not applied, chain 1 of 2): as the sequence (P07766 23-126, chain 1 of 2) above
T1 sequence (P04234 22-105, stated change not applied, chain 2 of 2): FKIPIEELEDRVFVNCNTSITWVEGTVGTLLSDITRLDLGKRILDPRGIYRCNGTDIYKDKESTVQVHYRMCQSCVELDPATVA

| Binder | Kd [1] | Response [1] | koff [1] | kon [1] | Kd [2] | Response [2] | koff [2] | kon [2] | flow cytometry signal (CD33 on KILR-HL60 cells [6]) | flow cytometry signal (CD33 on KILR-HL60 cells [7]) | flow cytometry signal [8] | flow cytometry signal [9] | other results |
| --- | --- | --- | --- | --- | --- | --- | --- | --- | --- | --- | --- | --- | --- |
| ABL-CD3-1 (antibody, V domains shown, Chimeric hybridoma mAb: human V, CH1, upper hinge; mouse middle hinge, CH2, CH3) VH: EVQLVESGGGLVKPGGSLRLSCAASGFTLSSYSMNWVRQAPGKGLEWVSSISRSGSYIYYADSVKGRFTISRDNAKNSLYLQMNSLRAEDTAVYYCAREKWELLYFDYWGQGTLVTVSS VL: NFMLTQPHSVSESPGKTVTISCTRSSGSIASNYVQWYQQRPGSSPTTVIYEDNQRPSGVPDRFSGSIDSSSNSASLTISGLKTEDEADYYCQSYDSSNRVFGGGTKLTVL | 108 nM | 0.31 | 0.0157 s⁻¹ | 145000 M⁻¹ s⁻¹ | 1210 nM | 0.07 | 0.171 s⁻¹ | 142000 M⁻¹ s⁻¹ | – | – | – | – | – |
| ABL-CD3-14 (antibody, V domains shown, Chimeric hybridoma mAb: human V, CH1, upper hinge; mouse middle hinge, CH2, CH3) VH: EVQLVESGGGLVKPGGSLRLSCAASGFTCSSYSMTWVRQAPGKGLEWVSSISRRSSYIYYADSVKGRFTISRDNAKNSLYLQLNSLRAEDTAVYYCARERWELLYFDYWGQGTLVTVSS VL: NFMLTQPHSVSESPGKTVTISCTRSSGSIASNYVQWYQQRPGSSPTTVIYEDNQRPSGVPDRFSGSIDSSSNSASLTISGLKTEDEADYYCQSYDSSNRVFGGGTKLTVL | – | – | – | – | 9.66 nM | 0.08 | 0.00287 s⁻¹ | 298000 M⁻¹ s⁻¹ | – | – | – | – | Kd [3]: 12.8 nM; Response [3]: 0.17; koff [3]: 0.00152 s⁻¹; kon [3]: 119000 M⁻¹ s⁻¹ |
| ABL-CD3-19 (antibody, V domains shown, Chimeric hybridoma mAb: human V, CH1, upper hinge; mouse middle hinge, CH2, CH3) VH: EVQLVESGGGLVKPGGSLRLSCAASGFTLSSYSMNWVRQAPGKGLEWVSSISRSSSYIYYADSVKGRFTISRDNAKNSLYLQMNSLRAEDTAVYYCARERWELLYFDYWGQGTLVTVSS VL: NFMLTQPHSVSESPGKTVTISCTRSSGSIASNYVQWYQQRPGSSPTTVIYEDNQRPSGVPDRFSGSIDSSSNSASLTISGLKTEDEADYYCQSFDNSNRVFGGGTKLTVL | 23.3 nM | 0.6 | 0.00191 s⁻¹ | 81700 M⁻¹ s⁻¹ | – | – | – | – | – | – | – | – | Kd [4]: 62.9 nM; Response [4]: 0.4; koff [4]: 0.00665 s⁻¹; kon [4]: 106000 M⁻¹ s⁻¹ |
| ABL-CD3-38 (antibody, V domains shown, Chimeric hybridoma mAb: human V, CH1, upper hinge; mouse middle hinge, CH2, CH3) VH: QGQLQQWGAGLLKPSETLSLTCAVYGGSFSGYYWSWIRLPPGKGLEWIGEINHSGNTNYNPSLKSRVTISVDTSKNQFSLQLSSVTAADTAVYYCAKEVEIWGYFDYWGQGTLVTVSS VL: QSVLTQPPSVSGAPGQRVTISCTGSSSNIGAGYDVHWYQQLPGTAPKLLIYGNSNRPSGVPDRFSGSKSGTSASLAITGLQAEDETDYNCQSYDSSLSGYVFGTGTKVTVL | – | – | – | – | – | – | – | – | – | – | – | – | Kd [5]: 1.36 nM; Response [5]: 0.73; koff [5]: 0.000331 s⁻¹; kon [5]: 243000 M⁻¹ s⁻¹; Kd [3]: 1.41 nM; Response [3]: 0.73; koff [3]: 0.00035 s⁻¹; kon [3]: 248000 M⁻¹ s⁻¹ |
| ABL-CD3-58 (antibody, V domains shown, Chimeric hybridoma mAb: human V, CH1, upper hinge; mouse middle hinge, CH2, CH3) VH: EVQLVESGGGLVKPGGSLRLSCVVSGFTFSNYNMNWVRQAPGKGLEWVSSSSRSSYIYYADSVKGRFTISRDNAKNSLYLQMNSLRAEDTAIYYCAREKWELLFFDYWGQGTLVTVSS VL: NFMLTQPHSVSESPGKTVTISCTRSSGSIASNFVQWYQQRPGSSPTTVIYEDNQRPSGVPDRFSGSIDSSSNSASLTISGLKTEDEADYYCQSFDSSNRVFGGGTKLTVL | 44.1 nM | 0.57 | 0.00265 s⁻¹ | 60100 M⁻¹ s⁻¹ | 45.2 nM | 0.28 | 0.00705 s⁻¹ | 156000 M⁻¹ s⁻¹ | – | – | – | – | – |
| CD3 × CD33-BspAb36 (bispecific antibody) scFv-Fc: not shown heavy: EVQLVQSGAEVKKPGSSVKVSCKASGYTITDSNIHWVRQAPGQSLEWIGYIYPYNGGTDYNQKFKNRATLTVDNPTNTAYMELSSLRSEDTAFYYCVNGNPWLAYWGQGTLVTVSSASTKGPSVFPLAPSSKSTSGGTAALGCLVKDYFPEPVTVSWNSGALTSGVHTFPAVLQSSGLYSLSSVVTVPSSSLGTQTYICNVNHKPSNTKVDKRVEPKSCDKTHTCPPCPAPEFEGGPSVFLFPPKPKDTLMISRTPEVTCVVVDVSHEDPEVKFNWYVDGVEVHNAKTKPREEQYNSTYRVVSVLTVLHQDWLNGKEYKCKVSNKALPASIEKTISKAKGQPREPQVCTLPPSREEMTKNQVSLSCAVKGFYPSDIAVEWESNGQPENNYKTTPPVLDSDGSFFLVSKLTVDKSRWQQGNVFSCSVMHEALHNRFTQKSLSLSPGK light: DIQLTQSPSTLSASVGDRVTITCRASESLDNYGIRFLTWFQQKPGKAPKLLMYAASNQGSGVPSRFSGSGSGTEFTLTISSLQPDDFATYYCQQTKEVPWSFGQGTKVEVKRTVAAPSVFIFPPSDEQLKSGTASVVCLLNNFYPREAKVQWKVDNALQSGNSQESVTEQDSKDSTYSLSSTLTLSKADYEKHKVYACEVTHQGLSSPVTKSFNRGEC | – | – | – | – | – | – | – | – | 746000 | 569000 | 12500 | 26100 | – |
| CD3 × CD33-BspAb38 (bispecific antibody) scFv-Fc: not shown heavy: EVQLVQSGAEVKKPGSSVKVSCKASGYTITDSNIHWVRQAPGQSLEWIGYIYPYNGGTDYNQKFKNRATLTVDNPTNTAYMELSSLRSEDTAFYYCVNGNPWLAYWGQGTLVTVSSASTKGPSVFPLAPSSKSTSGGTAALGCLVKDYFPEPVTVSWNSGALTSGVHTFPAVLQSSGLYSLSSVVTVPSSSLGTQTYICNVNHKPSNTKVDKRVEPKSCDKTHTCPPCPAPEFEGGPSVFLFPPKPKDTLMISRTPEVTCVVVDVSHEDPEVKFNWYVDGVEVHNAKTKPREEQYNSTYRVVSVLTVLHQDWLNGKEYKCKVSNKALPASIEKTISKAKGQPREPQVCTLPPSREEMTKNQVSLSCAVKGFYPSDIAVEWESNGQPENNYKTTPPVLDSDGSFFLVSKLTVDKSRWQQGNVFSCSVMHEALHNRFTQKSLSLSPGK light: DIQLTQSPSTLSASVGDRVTITCRASESLDNYGIRFLTWFQQKPGKAPKLLMYAASNQGSGVPSRFSGSGSGTEFTLTISSLQPDDFATYYCQQTKEVPWSFGQGTKVEVKRTVAAPSVFIFPPSDEQLKSGTASVVCLLNNFYPREAKVQWKVDNALQSGNSQESVTEQDSKDSTYSLSSTLTLSKADYEKHKVYACEVTHQGLSSPVTKSFNRGEC | – | – | – | – | – | – | – | – | 476000 | 635000 | 23700 | 34100 | – |
| CD3 × CD33-BspAb39 (bispecific antibody) chain 1: not shown chain 2: EVQLVQSGAEVKKPGSSVKVSCKASGYTITDSNIHWVRQAPGQSLEWIGYIYPYNGGTDYNQKFKNRATLTVDNPTNTAYMELSSLRSEDTAFYYCVNGNPWLAYWGQGTLVTVSSASTKGPSVFPLAPSSKSTSGGTAALGCLVKDYFPEPVTVSWNSGALTSGVHTFPAVLQSSGLYSLSSVVTVPSSSLGTQTYICNVNHKPSNTKVDKRVEPKSCDKTHTCPPCPAPEFEGGPSVFLFPPKPKDTLMISRTPEVTCVVVDVSHEDPEVKFNWYVDGVEVHNAKTKPREEQYNSTYRVVSVLTVLHQDWLNGKEYKCKVSNKALPASIEKTISKAKGQPREPQVCTLPPSREEMTKNQVSLSCAVKGFYPSDIAVEWESNGQPENNYKTTPPVLDSDGSFFLVSKLTVDKSRWQQGNVFSCSVMHEALHNRFTQKSLSLSPGK chain 3: DIQLTQSPSTLSASVGDRVTITCRASESLDNYGIRFLTWFQQKPGKAPKLLMYAASNQGSGVPSRFSGSGSGTEFTLTISSLQPDDFATYYCQQTKEVPWSFGQGTKVEVKRTVAAPSVFIFPPSDEQLKSGTASVVCLLNNFYPREAKVQWKVDNALQSGNSQESVTEQDSKDSTYSLSSTLTLSKADYEKHKVYACEVTHQGLSSPVTKSFNRGEC | – | – | – | – | – | – | – | – | 572000 | 541000 | 2160 | 2740 | – |
